This note sets out measurements from article PMC9129923.

The target of this test is microtubules grown from porcine brain tubulin (porcine) (UniProt P02550). Description: TIRF microscopy of fluorescent proteins on dynamic microtubules in vitro.

On to “γ-TuRC^ΔWD/StN/CDK1/PLK1-GFP (γ-TuRC purified by Strep-NEDD1 ΔWD, GCP3-GFP) (from UniProt P23258;Q9BSJ2-1;Q96CW5-1;Q9UGJ1-2;Q96RT8-1;Q96RT7-1;Q08AG7;Q6P582;Q6NZ67;Q9Y5B8-1) (complex)”, for which the MT binding at 10 nM, percent of γ-TuRC^StN/CDK1/PLK1 is 21% and the MT binding at 50 nM, percent of γ-TuRC^StN/CDK1/PLK1 is 13%.
In turn, “augmin^CDK1/PLK1-GFP, Q96CS2-1;Q9NVX0-1;Q68CZ6-1;Q9H6D7-1;O94927-1;Q7Z4H7-1;Q99871-1;Q9BT25-1” registered a fold intensity along MTs over NEDD1^CDK1/PLK1 of 20 fold.
